Measurements taken from a protein production outcome set (Wang et al. 2014).

Assay: label from the status in PepcDB records

MGVPEINEYGQQVNDLVPGWQGAQVLRRTALNGRFCRLEPLDVDRHAADLFAAYALGDNSDWTWLASTRPESVTATAHWIAGKVNDDVLVPYAVVDLRSEQAVGIVSYMAIEREMGTVEIGHVTWSRRMKNTPLGTEAVWLLLKNGFDHGYRRLEWKCDSMNVASRRAAERLGFSWEGRLRQRLVRKGRTRDSDMLSIIDGEWPARDAALRAWLAAENFTADGQQIKRLEAFR
protein production: failed

MYEPGTEQINCNGRLIELPTLEVVRPAPKMPSDANIDWLLHIYFTRREFTRCRRLIERELNRHLNPEYLYFVQGLIDREEGNHIEALRHLQKSAELNPRNIETYKEIGRTLYIMGRFSQALGVFREAEQRSSRQDHEIYHYLGELLYRAATTQSQKDVASQQQDEARTYFELAVQSGRKLESYVRLAELYRKDKQYQKAIEILENCLHLTPENSEVLIEISVLYLKINETQKAHDRLAEVVSIERKCSPKGLLAFGAILQSRNDIDGALSKYSQIANAEPEIAELWNNIGLCFFKKQKFIVAISSLRKSVWLSPLNYNALYNLSLIYIASEQYASAFHTLAAAINLRKDNAECYMLLGLCLRKLDDMENAFVALERASSMATGQQGAGRNPLVVLNFALFCYETGRLALSTEQYNRFMSQAQDLLLPTEYKFQATKLKSLLRISNQGNGILLDSADMGESDLGHNRATELLPDELPLEVNAVVSQN
protein production: failed

RSRIDTALNRGRCGLWDWDLSRGRIFWSQSMFTILGLESRNDLLTFGEVNALVKGEDIDLFAIADELMAGRVDHIDHSFQMRHAHGHWIWLRMRCELTQEAGATEKHLIGIAVDITEQKSLAERSVEADLRLRDAIETIPEAFVLWDAENRLVLCNSHFQRL
protein production: failed

SYDYQSAFDIIGPVMMGPSSSHTAGAVKIGNSARAVLGDMPKHIEIRYYESFAKTHQGHGTDVAIVGGAMGYSTFDSRIKSSLDIAKDENITIDIIEDEGESIGQHPNCAYIKANTKDGRYIEVIGISIGGGTIKLKGINVNGLNVELNHG
protein production: failed

MKNKIKFATIIHPDVSFFNKQEVGEGTIIYPGLIVVGRFKLGKHVILKQKCSLGNNIEIGDYSFISFNSNIDSNVMVKEGSYIEANTTILANSNIDKNTYIKEGSILYLEHHHHHH
protein production: failed

VVKVALFVRLEAKPGKEKEVESFLMGGLPIVNEEPATTAWFGIRLGPSTFGIFDAFPNEAGRQAHLSGKVAAALMAKAGELFSEPPSIEKVDILAAKLPG
protein production: failed

MFFSEARARSRTWEASPSEHRKWVEVFKACDEDHKGYLSREDFKTAVVMLFGYKPSKIEVDSVMSSINPNTSGILLEGFLNIVRKKKEAQRYRNEVRHIFTAFDTYYRGFLTLEDFKKAFRQVAPKLPERTVLEVFREVDRDSDGHVSFRDFEYALNYGQKEA
protein production: failed

MPPLCPLPTGGKRTNLHQYRHATRAMTDRLSPERRRYLMQQVRSKNTRPEKAVRSLLHSIGYRFRLHRKDLPGTPDIVFPSRRLVLFVHGCFWHGHGCRIGQLPKSRLDYWSPKIEANRARDQRKEAALAAEGWRVAVVWQCELSDLGALEARLRNILDPS
protein production: failed

MKKILVLGGAHIDRRGMIETETAPGASNPGSWMEEAGGGGFNAARNLSRLGFEVRIIAPRGGDVTGEVVAEAARQAGVEDTPFTFLDRRTPSYTAILERDGNLVIALADMDLYKLFTPRRLKVRAVREAIIASDFLLCDANLPEDTLTALGLIARACEKPLAAIAISPAKAVKLKAALGDIDILFMNEAEARALTGETAENVRDWPNILRKAGLSGGVVTRGASEVVAFNGTEKAILHPPLIREVKDVTGAGDAMASGYLAAIAEGKTIREALRQGAAAAAITVQSSFATSQDLSKDSVEAMLGLVPQAEMLA
protein production: not failed

MSRDGGDVIETAVKSLGKGFDLTADFRLKYCKDGDGSAGDDRLVVLDQTQNRELHIPGFGVFQNVSADINCDKGERTRFRSDILDFNKMSEYFNQRSSVTGKIPSGNFNATFGFQSGSWATDAANVKSLGLDASVVTLFNLHIHNPNRLRLTDRVRNAVPSSWDPQLLARFIERYGTHVITGVSVGGQDVVVVRQDKSSDLDNDLLRHHLYDLGDQLFTGSCLLSTRRLNKAYHHSHSQPKFPEAFNVFDDKQTVAFNNFSINSQNGITVICAKRGGDGRAKSHSEWLITVPDKPDAINFNFIPITSLLKDVPGSGLLSHAMSLYLRYKPPLMDLQYFLDFSGPRAWAPVHNDLPFGAAPNMASAYPALHINFMGPKLYVNTTPVTSEKNPVTGMRFFLEGKKCNRLAIHLQHLDNTRTTVGEKITDEHIWRGSDQITDNDRYFEPLNGKKFSHVCTVPVKYDPNWIKTTSNHKSQNDVAFIVTGAQLEVKKHGSKSVLHLRLRYTKVSDHYVVQNSWVHGPIGTSQKSGIFSSMSMPLTSGSVHHNMIQKDKNEVVLDSGVFPGGPPVPANNKIVKFVDLSQLCRGPQHSPGHWLVTGVRLYLDKGKLCLHVKFALLHRQRLLVSS
protein production: failed

MKQFGGPVLFLDRSDINTDEIIPAKYLTEITKEDLKPYILEDLKLPGFDPKGEKTKTARVVVSRANFGCGSSREHAPWVFEVNGITAVIAESFARIFRQNMFNCGMAAIELSADTIEGLFTYAGCADAAISIDVAGQTLTISGGGTSETHSFDISPFDKALVLAGGWVDYADSKY
protein production: failed

METAICGRLALAPSSLFNSKSGDKHLVSKGPCVNRSILMTLSTSAALGKGGGVLDKPIIEKTTPGRESEFDLRKSKKIAPPYRVILHNDNFNKREYVVQVLMKVIPGMTVDNAVNIMQEAHINGLAVVIVCAQADAEQHCMQLRGNGLLSSVEPDGGGC
protein production: failed

MSFAIEALGQGRFDEVEILCREILKEVPDHFHATHLLGLRAFDGGWLEDAQFLLERAVALDPRSPDAHGNLGAVYFALERFKDARACQEKAIALKPNCPITLTNLGNTLLHLGLAKEAIELHERAIRLKPNYADAFCNRGMAELMIGQFERAGVDFDRALSFQPRHAEAIAGKAMVSLELRHFEAAEAAFEASLALKPGSPRILVQRGRLHLTLYRLEQAAADFDAALAQSPRNELALCWRAQVDIMVRNTAGAMAGVKTLLEVNPQSEAGMSLLASCHANQGDIATALEYLDAALAIAPDFPEAIGYKIFVLDYLPEADFVVQQAARKYWWDQIGAKLPQRTLSPRDLDPDRRIVIGYVASEFRQHSAAYTLLPVMRHHDHAKFKIVCYSCWPLQDGMTEKFKACADVWVEAAQFSDDELADRIQADGIDILIDVSGHTTGSRLHVFSRKPAPIQVTGFGHATGTGLQTMDYVLADPIFIPQSARHLLAEKVYDLPSLITIDPIQDVPPSELPMLRNGYVTFGVFNRILKISDEAIRVWSKVMREVAGSKIIIKNGLLDDPMLRDGLIARFVAQGIAEENVICMGSTSRREHLRAFANVDISLDTFPQNGGISTWESLYAGVPVVAKLGNGSSSRAGGSIVAAVGLGDWVADDDEGYAAIACKFAAQPAHLAKLRADLPAQIANSPAGNVEIYTREVEAGYRQFWRDYCAEASETCDVA
protein production: failed

TVDRSVAIVGTRAMSHYGKSATSMLAAGIADHHWTIVSGGALGVDTVAHTEALQRQKPTVAVCARGLDAPYPRKNAELLRSIVETGCLVSEYAPGLTPHRHRFLTRNRLVAALSQGTVVVEAAWRSGALNTLSWASALGRVAMAVPGPVTNTGSLGCHERIRNKEAELVCSAEEILALVGTLGEFDPN
protein production: failed

MSKKINELLRYCEENYIERGSLELALRCAVSICKANPDAPQAYAHVAAYRILLTAANYRTVTGEPDWYAVLGINKRGSSKSVVNAIDRRCEEIIEVLDGETGVSKAVSRVYDLVRLGVSELMDEDRRRAYDLRSGFSIIN
protein production: failed

MGVTLAKGGNVSLSKAAPNLTQVLVGLGWDARSTTGAPFDLDASALVCSSGRVLGDEWFVFYNQLKSPDGSIEHTGDNLTGEGDGDDESLLVDLSKVPAHCDKIVFPVSIHMADERGQTFGQVSNAFIRVVNQADGQELARYDLSEDASTETAMIFGELYRYQGEWKFRAVGQGYASGLRGIALDFGVNVS
protein production: not failed

MSLRTLVAGVDTSTQSCKVRVTDAETGELVRFGQAKHPNGTSVDPSYWWSAFQEAAEQAGGLDDVSALAVGGQQHGMVILDNQGNVIRDAMLWNDTSSAPQAAALIEKLGAAPAQDGEPEDPIARGKQRWVKAVGSSPVASYTLTKVAWVAENEPENVKKIAAICLPHDWLSWRIAGYGPVAEGEDAHLEALFTDRSDASGTIYYDAASNEYRRDLIAMVLEAAEGAKAAQSHAEAIVLPTVLGPRDAAPVKADPAIAGKNVEGGCLLAPGGGDNAMASLGLGMAVGDVSISLGTSGVAAAISENPTYDLTGAVSGFADCTGHYLPLACTINGSRILDAGRAALGVDYDELAKLAFASKPGANGITLVPYFDGERTPNRPNATATFSGMTLANTTRENLARAFVEGLLCSQRDCLELIRSLGASITRILLIGGGAKSEAIRTLAPSILGMDVTRPATDEYVAIGAARQAAWVLSGETEPPAWQLTIDGVETGEPTEAVYEAYAKARGEGHHHHHH
protein production: not failed

MTSPLRPEDPTRVGDYDLVARIGKGGQGVVYLGKAPDGTRVAVKVMETSWASNSRARSRFAKEIEAASKVAPFCTAALLDSDINADPPYIVSEYIEGPSLRDAVLRDGPRTGAALDRLAISTATALVAIHQAGVIHRDFKPANVLLGPDGPRVIDFGIARHSEATVTATDSIVGTPAYMAPEQVEGRELTPAVDIFAWAGVMVFAATGQSPFHDETLPAIINRVLHQPPRLDGVDERLRPLLEACLAKEPERRPTAVQVLGVLVGHDPATLPQVPVEEVLENGYTAALNEQTQIAATAALPIPIGDQAPEPAPTAVMPAAEDTPAPESRTPVSGLAALAANRPADEAPASSPPSGPLRTTSGLAALVNTGENKQPTASSPGEGPPRRSAGPGHQPLPPRSTRERKTVLSWLVAAGILIIVLAGGWFLIDTFLLSPNGQSPEATPVDGTRRDTPAQDGIDDSVPSPSAIDPDTPTSSDTGYPGGELYPSLPYDDMSQTDPMEEPHLNPTIPGEGPWHSPPAGEEAPGQPHGGGAEEGGSEGGEQPGTGGPGGSGEGGAGVGRVAVSPAAP
protein production: failed

MFDLSSIVDNEQTSDALEDVVMGLIINAGQARSLAYNALKQAKAGDFAQADELMAQSRSALNDAHLVQTQLIEADQGEGKTKVTLVLVHAQDHLMNAMLARELITELIELHQKIQ
protein production: failed

MFAHIGEDYVVNSSELLLIMSYDIFMSSEDNLRILESLKNEDRLVVINDDLKKSIIILEIDGRLYAIVSPVSSTTIAKRFLNFNYYVDNYLDESLEHHHHHH
protein production: not failed

MLEKLIERVLFATRWLLAPLCIAMSLVLVVLGYVFMKELWHMLSHLNTISETDLVLSALGLVDLLFMAGLVLMVLLASYESFVSKLDKVDASEITWLKHTDFNALKLKVSLSIVAISAIFLLKRYMSLEDVLSSIPKDTPLSHNPIFWQVVIHLVFVCSALLAAVTNNIAFSQNKAH
protein production: failed

MLGLFLIFWGLLLLLSLATFDLRDPSLNHVVSNPTEIRNGAGMFGSYLGGMLADAFGIAAFLWPVGFIGLGARYIIVSFDIAWWRWAGLLALSLCMVTAGAAWELSLGDVNAGGVLGDLLYRFSWKALSPRGSTLVWLFLCIIGLQLTFDISWTALFRRIVDKVRADLEAHPVSRPQLPELKLPRLGLPSGLHLPGRKGAEGNAPATLAVVDVTPDGSDSTNGAPSVVAREASTPRGMPVETDDFVLSEDRLQPPASELPFEVVLDADTDGVADLTADVESDISEGAGRPKAKMRRKSQLPPLDLLHSALNEDSRPDREVLEGKGLSLTNCLSDFGVQGELTRITPGPVVTMFEFRPAPGVKVSRIANLSDDLALALKAIAVRIQAPIPGTDTVGIEIPNETRETVCFKELLSSDTFKGASSLLTLAIGKDIAGRPTVADLSKMPHLLVAGATGAGKSVCLNSILLSILYKARPEDVKLLLVDPKRIELAVYADLPHLVHPVVTEMAHAKNALDWAVHEMDKRYEGMARLGVRNIAGYNQKLEDMGKERPADLADLEAMPYLVIIIDELADLMLTAAKEVETSIVRLAQLARAAGIHLILATQRPSVDVVTGLIKANFPCRISFQVTSKHDSRTILDTVGAEFLLGKGDMLFKPSGGKLQRLHGAFVSDDDVNGVVAFWKKQQPPSYKVDFAEWGNEGTLDGNGGSGGAGDLADDPVYAEAVEFVMGQGRASISLIQRRFRIGFNRAARYVEQMEQDGIIGPADGSKPRSVIRGKE
protein production: failed
